Data published in article PMC7335789, “Bifurcated binding of the OmpF receptor underpins import of the bacteriocin colicin N into Escherichia coli” (The Journal of Biological Chemistry, 2020).
Ends that are not written are not given here.

T1: OmpF on E. coli cells (E. coli (endogenous in JW2203-1, …, UniProt P02931 23-362))
T1 sequence (looked up): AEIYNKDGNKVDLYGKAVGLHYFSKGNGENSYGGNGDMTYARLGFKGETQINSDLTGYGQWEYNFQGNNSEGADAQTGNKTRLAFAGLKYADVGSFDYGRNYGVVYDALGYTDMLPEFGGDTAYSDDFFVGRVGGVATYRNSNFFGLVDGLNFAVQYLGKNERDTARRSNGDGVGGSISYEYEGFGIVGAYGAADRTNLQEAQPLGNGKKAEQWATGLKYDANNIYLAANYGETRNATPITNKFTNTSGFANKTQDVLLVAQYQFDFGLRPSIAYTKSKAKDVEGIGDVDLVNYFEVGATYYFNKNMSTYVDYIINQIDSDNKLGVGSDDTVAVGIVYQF

B1: ColN^2-19 peptide (peptide)
peptide: GSNGADNAHNNAFGGGKN-NH2
notes: also called ColN-OBS; ColN OBS; source: synthetic peptide, bought: Activotec
B2: ColN^91-185 (ColN central domain) (domain or fragment)
chain: SAKVGEITITPDNSKPGRYISSNPEYSLLAKLIDAESIKGTEVYTFHTRKGQYVKVTVPDSNIDKMRVDYVNWKGPKYNNKLVKRFVSQFLLFRK
notes: also called ColN-R
B3: OmpF (natural protein, E. coli (endogenous in B^E3000), UniProt P02931 23-362, looked up)
chain: T1 sequence (looked up)
notes: also called OmpF trimer; purified OmpF lacking LPS
B4: ColN^1-185 (ColN without the pore forming domain) (domain or fragment)
chain: MGSNGADNAHNNAFGGGKNPGIGNTSGAGSNGSASSNRGNSNGWSWSNKPHKNDGFHSDGSYHITFHGDNNSKPKPGGNSGNRGNNGDGASAKVGEITITPDNSKPGRYISSNPEYSLLAKLIDAESIKGTEVYTFHTRKGQYVKVTVPDSNIDKMRVDYVNWKGPKYNNKLVKRFVSQFLLFRK
B5: ColN^1-185-mCherry (domain or fragment)
chain: B4 chain
notes: also called fluorescently labeled ColN

Columns and labels:
OmpF [1] = molecular target: B3; experiment: ITC; MicroCal ITC200, 25 C, 20 mM potassium phosphate pH 6.5, 1% beta-OG; purified OmpF trimer without LPS in the cell, ColN construct or peptide in the syringe; settings: both partners purified
[2] = molecular target: the molecule itself; experiment: native MS; 10 uM OmpF and 10 uM ColN in 100 mM ammonium acetate pH 6.9, 1% beta-OG, trypsin 37 C 2 h, gel filtration, OmpF fractions analysed in 200 mM ammonium acetate, 1% beta-OG
OmpF [3] = molecular target: B3; experiment: ITC; settings: one partner purified
OmpF on E. coli cells = molecular target: T1, OmpF on E. coli cells; experiment: widefield fluorescence microscopy of labelled cells; settings: one partner purified

Binder	Kd (OmpF [1])	dH (OmpF [1])	stoichiometry N (OmpF [1])	stoichiometry N [2]	Kd (OmpF [3])	dH (OmpF [3])	binding to cells with OmpF and OmpC (BW25113) relative to OmpF-only cells (OmpF on E. coli cells)
B1	1400 nM	-17.9 kcal/mol	3.67 peptide/OmpF				
B2	14000 nM	-3.8 kcal/mol	3.82 ColN^90-185/OmpF				
B3				3			
B4	214 nM	-27.7 kcal/mol	2.69 ColN^2-185/OmpF		119 nM	-38.8 kcal/mol	
B5							~0.5 fold
